Test results as given in patent US20090162358A1 (GlaxoSmithKline, published 2009).

Legend:
[1] = biological target: T1, biotinylated β-amyloid 1-40 (human Aβ1-40 peptide in solution, competition ELISA) (human, UniProt P05067 672-711, biotin, position not stated); assay: competition ELISA: antibody pre-incubated with biotinylated Aβ 1-40, free Aβ captured on immobilised mouse 6F6 (competitor); Exp 2
T1 construct: domain: β-amyloid (1-40)
Experimental: (§1) 6F6c and humanised antibodies H₁₁L2, H11L9, H11L10, H11L12 and H11L13 were assessed for their ability to bind Aβ1-40 peptide in solution and inhibit the interaction of human Aβ1-40 peptide with mouse 6F6 monoclonal antibody in a competition ELISA. A constant concentration of biotinylated β-amyloid 1-40 was pre-incubated with serial diluted amounts of humanised 6F6 antibody variants. The mixture including complexed and free amyloid was then added to wells containing immobilised mouse 6F6 monoclonal antibody and incubated for 15 minutes at room temperature. Plates were washed and the amount of free β-amyloid that was still available for binding the immobilised parental 6F6 monoclonal antibody was then detected using streptavidin-HRP conjugate.

human β-amyloid 1-40 [2] = biological target: T2, human β-amyloid 1-40 (human, UniProt P05067 672-711); assay: SPR Biacore T100, 25 C; antibody captured on protein A, Aβ 1-40 at 2-256 nM; mean of three experiments
T2 construct: domain: β-amyloid (1-40); Used in solution over captured antibody (Biacore) or coated on ELISA plates; also called human Aβ peptide (1-40); Aβ peptide (1-40)
Experimental: The affinity of selected heavy and light chain combinations was determined using a Biacore T100 instrument. Three independent experiments were performed using humanised antibody immobilised via protein A surface Biacore chips and injection of β-amyloid 1-40 peptides. The chimeric molecule of 6F6 served as a reference molecule. For this Protein A was immobilised on a CM5 chip by primary amine coupling in accordance with manufactures recommendations. Anti-β-amyloid antibodies were captured on this surface and after a period of stabilisation human β-amyloid 1-40 was passed over at concentrations 256-2 nM in halving dilutions. A buffer injection over the captured antibody surface was used to double reference the data set in accordance with Biacore best practice. […] The work was carried out in HBS-EP at 25° C. Results are summarised in Table 13 as the mean of all three experiments.

[3] = biological target: T1, biotinylated β-amyloid 1-40 (human …); assay: competition ELISA: antibody pre-incubated with biotinylated Aβ 1-40, free Aβ captured on immobilised mouse 6F6 (competitor); Exp 1
Experimental: as §1

human β-amyloid 1-40 [4] = biological target: T2, human β-amyloid 1-40; assay: SPR Biacore T100; antibody captured on anti-human IgG, Aβ 1-40 at 1-256 nM; 1:1 model
Experimental: Anti-human IgG (Biacore BR-1008-39) was coupled to a CM5 biosensor chip by primary amine coupling. The anti-beta amyloid antibodies were captured on this surface. Beta amyloid (1-40) was then passed over at 256, 64, 16, 4 and 1 nM, with a 0 nM (ie buffer alone passed over the captured antibody surface) used for double referencing. […] The data was analysed using the 1:1 model inherent to the T100. The run was carried out at 25° C. and 37° C. using HBS-EP as the running buffer.

T2 sequence (P05067 672-711 limits assumed): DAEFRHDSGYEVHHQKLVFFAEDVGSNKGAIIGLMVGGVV
T1 sequence (P05067 672-711 limits assumed): as above

B1: chimeric 6F6 antibody (6F6c) (antibody, human IgG1, V domains shown)
VH: EVQLQQSGAELVEPGASVKLSCTGSGFNIKVYYVHWLKQLTEQGLEWIGRIDPENGETIYTPKFQDKATLTVDTSSNTAYLQLSSLTSEDAAVYYCVSSGYWGQGTLVTVSS
VL: DIVMTQSAFSNPVTLGTSASISCRSSKSLLHRNGITYLYWYLQKPGQPPQLLIYQMSNLASGVPDRFTSSGSGTDFTLKISRVEAEDVGVYYCAQNLELWTFGGGTKLEIK
notes: Murine V regions on human IgG1 (Fc disabled) and human C kappa; also called 6F6 Chimera (pur); chimeric molecule of 6F6
IC50 [1]: 0.451 µg/mL | Kd (human β-amyloid 1-40 [2]): 3.74 nM | IC50 [3]: 0.566 µg/mL | Kd (human β-amyloid 1-40 [4]): 1 nM
